# Patent US20040213780, “Methods and compositions for treating polyglutamine expansion-associated disease” (published 2004)
# Molecular target: Sp1 (UniProt P08047 P08047:2-785)
# Assay: EMSA; 5 mM DTT, 1 ug/ml poly(dI-dC); binding reduced 20% by GST-huntingtin Q20 and 70% by Q51; competed by 50-fold unlabelled probe
# Settings: tags: purified Sp1, Promega; label: labeled (autoradiography)
# Procedure: Chem. 273:26218, 1998) except that 5 mM DTT and 1 μg/ml poly(dI-dC) were used. GST-huntingtin fusions (0.2 μg/ul) were a gift of E. Wanker and were purified as described (J. S. Steffan et al., Nature 413:739, 2001). An approximate 1:1 ratio of purified proteins was used. Coomassie blue staining and Western blotting were used to examine the purified proteins.
# Binding of Sp1 to a labeled consensus Sp1 site is shown in lane 1, and competition with a 50-fold molar excess of unlabelled probe is shown in lane 2 (plus sign). Incubation of Sp1 in the presence of GST-huntingtin with 20 glutamines (Qs) led to a 20% reduction in Sp1 binding (lane 3), whereas huntingtin with 51 Qs inhibited Sp1 binding by 70% (lane 4). The Sp1/DNA complex was identified with anti-Sp1 and is indicated by an arrow in all panels. […] Primary striatal cells were transfected with wild-type (HttQ 17) or mutant (HttQ75) huntingtin. EMSA was performed with a labeled D2 promoter fragment containing a Sp1 binding site. […] In competition experiments, a 100-fold molar excess of double-stranded nonradioactive oligonucleotide was used (lanes 2 and 4). […] EMSA was performed with nuclear extracts isolated from presymptomatic grade 1 and grade 4 HD brain tissue as described above herein. […] Competition experiments were performed as in (FIG. 2B) (lane 2). […] EMSA was performed as in FIG. 2C. […]
# Sequence of Sp1 (P08047 2-785, one chain of several): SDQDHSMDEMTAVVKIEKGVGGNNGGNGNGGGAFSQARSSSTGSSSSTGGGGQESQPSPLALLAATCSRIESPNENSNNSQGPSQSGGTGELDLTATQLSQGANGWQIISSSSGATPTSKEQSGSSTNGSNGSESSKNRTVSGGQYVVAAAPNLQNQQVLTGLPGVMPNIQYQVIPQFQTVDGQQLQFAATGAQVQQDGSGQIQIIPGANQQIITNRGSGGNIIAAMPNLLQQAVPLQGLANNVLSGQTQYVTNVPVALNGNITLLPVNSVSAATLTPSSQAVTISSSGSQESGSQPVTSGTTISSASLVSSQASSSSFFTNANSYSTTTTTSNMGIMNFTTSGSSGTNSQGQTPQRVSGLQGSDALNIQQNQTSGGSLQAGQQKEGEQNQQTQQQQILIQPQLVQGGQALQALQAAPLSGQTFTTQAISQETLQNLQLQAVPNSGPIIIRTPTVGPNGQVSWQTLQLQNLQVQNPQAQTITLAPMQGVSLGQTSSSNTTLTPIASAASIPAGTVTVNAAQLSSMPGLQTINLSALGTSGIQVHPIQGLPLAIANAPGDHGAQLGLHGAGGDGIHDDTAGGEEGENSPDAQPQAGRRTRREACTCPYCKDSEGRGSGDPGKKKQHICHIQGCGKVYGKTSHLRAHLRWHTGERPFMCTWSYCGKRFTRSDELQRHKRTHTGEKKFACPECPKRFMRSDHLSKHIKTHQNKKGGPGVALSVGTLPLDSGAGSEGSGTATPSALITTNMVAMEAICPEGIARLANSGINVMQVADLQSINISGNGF
binder,measurement,value
Sp1 consensus site probe (dsDNA) DNA 1: ATTCGATCGGGGCGGGGCGAGC DNA 2: GCTCGCCCCGCCCCGATCGAAT,binding result,binds
